Source: patent US20120196763

T1: recombinant A. fumigatus ACP (acyl carrier protein), truncated form, pET30 fusion protein
T1 chain: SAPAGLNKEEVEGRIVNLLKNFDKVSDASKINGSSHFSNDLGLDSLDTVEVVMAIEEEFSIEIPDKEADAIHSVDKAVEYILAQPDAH

T2: recombinant C. albicans ACPe (CaO19.9975), pET30 fusion protein
T2 chain: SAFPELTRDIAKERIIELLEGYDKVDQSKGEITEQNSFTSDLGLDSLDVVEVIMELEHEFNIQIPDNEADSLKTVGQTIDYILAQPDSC

T3: recombinant C. albicans ACPg (CaO19.8439), pET30 fusion protein
T3 chain: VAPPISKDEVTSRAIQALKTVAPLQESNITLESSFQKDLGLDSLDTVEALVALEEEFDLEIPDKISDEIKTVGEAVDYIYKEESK

B1: recombinant C. albicans PPTB (CaO19.4812), expressed from pET43.1 (protein)
chain: MPKVGTVLGIGVDIVNSVRFERLLTAKSTSFGTRLSKRILHPEHELPLFQQMHSQRQAQYLTGSWAAKEALFKTLDLNSQKEFNFNQWYRFHDSNGKPFIWNDRYKLSDEEFHLSISHDDSLVIATVLRQKVYQI
B2: recombinant A. fumigatus PPTB (phosphopantetheinyl transferase B), PPTB-NusA fusion protein (protein)
chain: MKLIPFPYPLNIGTDVVHLPRILRLINRPDYFHRFTRRILHEQEQRDFRTRFSLPPPSSGAEKTGLNPITPDMARWLAGRFAAKEAARKAAPAGASSLGWKDVIVRVGEADKGRPEIVYLDPMGCGETGGGRVGKLSISHDGDYVVATVLAAG

Legend:
[1] = molecular target: T1, recombinant A. fumigatus ACP (acyl …)
[2] = molecular target: T2, recombinant C. albicans ACPe …
[3] = molecular target: T3, recombinant C. albicans ACPg …

Protein | PPTB activity assay with ACP as substrate [1] | pantetheinylation of ACP with CoA-Bodipy TMR, SDS-PAGE gel under UV light [1] | pantetheinylation of ACP with CoA-Bodipy TMR, SDS-PAGE gel under UV light [2] | pantetheinylation of ACP with CoA-Bodipy TMR, SDS-PAGE gel under UV light [3] | labelling of ACP with CoA-Bodipy TMR, resolved on SDS-PAGE gel [1]
B1 | Assays for C. albicans PPTB activity using A. fumigatus ACP as a substrate gave a poor signal | ACPe and the A. fumigatus ACP were pantetheinylated weakly | ACPe and the A. fumigatus ACP were pantetheinylated weakly | The C. albicans PPTB pantetheinylated ACPg strongly | 
B2 |  | The A. fumigatus PPTB was able to pantetheinylate both A. fumigatus ACP and ACPg | whereas ACPe was pantetheinylated weakly | The A. fumigatus PPTB was able to pantetheinylate both A. fumigatus ACP and ACPg | recombinant PPTB was able to label recombinant ACP (resolved on SDS-PAGE gel) in the presence of magnesium ions and CoA-Bodipy TMR
